The results in this text go back to the supplement of paper PMC9112550, “Optimization of the antimicrobial peptide Bac7 by deep mutational scanning” (BMC Biology, 2022).
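Also: peptides expressed intracellularly from a pBAD plasmid library in pooled LB shake-flask culture, induced with 0.3% L-arabinose, DNA abundance read by NGS, three biological replicates, DESeq2 with apeglm shrinkage.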

The subject of the data set is Escherichia coli TOP10. As to the kind of experiment: shrunken log2 fold change of peptide-encoding DNA abundance (4.5 h post-induction vs induction); higher = less antimicrobial activity (less host growth inhibition). The settings on record: time post-induction: 4.5 h; library: site-saturation at positions 5, 18, 19, 20.
Turning to RRIRKRPPRLPRPRPRPAHLPRP, the “shrunken log2 fold change” value is -0.00667.
To RRIRHRPPRLPRPRPRPQWWPRP belongs -0.0314; to RRIRFRPPRLPRPRPRPLEQPRP, 0.0789.
The result for RRIRFRPPRLPRPRPRPGKIPRP reads -0.024; that for RRIRHRPPRLPRPRPRPIEYPRP, -0.129.
To RRIRSRPPRLPRPRPRPFNTPRP belongs -0.257; to RRIRVRPPRLPRPRPRPDGPPRP, 0.0955; to RRIRTRPPRLPRPRPRPSKHPRP, -0.351.
For RRIRDRPPRLPRPRPRPTFAPRP, the “shrunken log2 fold change” value came to 0.454.
The result for RRIRFRPPRLPRPRPRPHEHPRP reads -0.135; that for RRIRARPPRLPRPRPRPPMTPRP, 0.88; that for RRIRQRPPRLPRPRPRPRMTPRP, 0.388.
For RRIRKRPPRLPRPRPRPKGPPRP, the “shrunken log2 fold change” value was 0.828.
For RRIRIRPPRLPRPRPRPLFNPRP, the “shrunken log2 fold change” value is -1.02.
The result for RRIRVRPPRLPRPRPRPHRMPRP reads -0.457; that for RRIRYRPPRLPRPRPRPIRLPRP, 0.0224; that for RRIRCRPPRLPRPRPRPGFVPRP, 0.528.
To RRIRIRPPRLPRPRPRPHWPPRP belongs 0.00237; to RRIRRRPPRLPRPRPRPHLFPRP, 0.0328.
The result for RRIRMRPPRLPRPRPRPPPWPRP reads 1.38; that for RRIRIRPPRLPRPRPRPGWYPRP, -0.221.
In the case of RRIRYRPPRLPRPRPRPKLTPRP, the “shrunken log2 fold change” value was -0.173.
To RRIRARPPRLPRPRPRPKWDPRP belongs 0.373; to RRIRTRPPRLPRPRPRPGMDPRP, 0.0475.
The result for RRIRGRPPRLPRPRPRPKNCPRP reads -0.111.
The result for RRIRLRPPRLPRPRPRPTIYPRP reads -0.334; that for RRIRHRPPRLPRPRPRPRAYPRP, -0.411; that for RRIRIRPPRLPRPRPRPSPKPRP, -0.178.
As to RRIRIRPPRLPRPRPRPQDVPRP, the “shrunken log2 fold change” value is -0.0964.
On to RRIRRRPPRLPRPRPRPADLPRP, for which the “shrunken log2 fold change” value is -0.141.
The result for RRIRMRPPRLPRPRPRPNHIPRP reads -0.407; that for RRIRYRPPRLPRPRPRPNICPRP, -0.204; that for RRIRFRPPRLPRPRPRPYLEPRP, -0.0738.
To RRIRMRPPRLPRPRPRPQNNPRP belongs -0.13; to RRIRLRPPRLPRPRPRPLWDPRP, 0.466; to RRIRMRPPRLPRPRPRPLEDPRP, 2.77.
The result for RRIRERPPRLPRPRPRPIDCPRP reads -0.409; that for RRIRSRPPRLPRPRPRPKQGPRP, 0.245.
Turning to RRIRLRPPRLPRPRPRPEFNPRP, the “shrunken log2 fold change” value was -0.0571.
To RRIRKRPPRLPRPRPRPDGLPRP belongs -0.162; to RRIRWRPPRLPRPRPRPVLDPRP, 0.0956; to RRIRKRPPRLPRPRPRPYHAPRP, 0.0039.
Consider RRIRVRPPRLPRPRPRPPKMPRP, for which the “shrunken log2 fold change” value was -0.0776.
To RRIRCRPPRLPRPRPRPREHPRP belongs 0.161; to RRIRNRPPRLPRPRPRPKILPRP, 0.0428; to RRIRQRPPRLPRPRPRPLIMPRP, -0.0338.
To RRIRARPPRLPRPRPRPPDMPRP belongs 0.778; to RRIRKRPPRLPRPRPRPQQKPRP, 0.206; to RRIRARPPRLPRPRPRPDHAPRP, -0.0131.
The result for RRIRYRPPRLPRPRPRPLFAPRP reads -0.492.
Turning to RRIRKRPPRLPRPRPRPCLYPRP, the “shrunken log2 fold change” value was -0.0745.
To RRIRMRPPRLPRPRPRPIIFPRP belongs -0.0918.
The result for RRIRTRPPRLPRPRPRPRNQPRP reads -0.139; that for RRIRMRPPRLPRPRPRPTRRPRP, 1.14; that for RRIRSRPPRLPRPRPRPALWPRP, 0.825.
The result for RRIRPRPPRLPRPRPRPWIVPRP reads -0.197.
RRIRPRPPRLPRPRPRPGSNPRP: the “shrunken log2 fold change” value was -0.082.
Consider RRIRLRPPRLPRPRPRPRKDPRP, for which the “shrunken log2 fold change” value came out at 0.0699.
The result for RRIRHRPPRLPRPRPRPCCSPRP reads -0.313; that for RRIRHRPPRLPRPRPRPGVTPRP, 0.00739; that for RRIRCRPPRLPRPRPRPHWGPRP, 0.143.
The result for RRIRRRPPRLPRPRPRPGGKPRP reads 0.0881; that for RRIRERPPRLPRPRPRPWTMPRP, 0.0606.
To RRIRIRPPRLPRPRPRPPKIPRP belongs -0.106; to RRIRSRPPRLPRPRPRPKEMPRP, 0.187.
As to RRIRYRPPRLPRPRPRPWKDPRP, the “shrunken log2 fold change” value is -0.0122.
To RRIRRRPPRLPRPRPRPPKEPRP belongs 0.0931; to RRIRFRPPRLPRPRPRPMNWPRP, -0.143; to RRIRDRPPRLPRPRPRPVDTPRP, -0.0119.
The result for RRIRKRPPRLPRPRPRPFALPRP reads 0.186; that for RRIRCRPPRLPRPRPRPYDVPRP, -0.0223; that for RRIRKRPPRLPRPRPRPEVQPRP, 3.94.
As for RRIRIRPPRLPRPRPRPSNAPRP, the “shrunken log2 fold change” value is -0.0615.
To RRIRDRPPRLPRPRPRPNCFPRP belongs 0.156.
As to RRIRQRPPRLPRPRPRPKMDPRP, the “shrunken log2 fold change” value is -0.111.
The result for RRIRPRPPRLPRPRPRPITPPRP reads 0.0216.
On to RRIRERPPRLPRPRPRPTEIPRP, for which the “shrunken log2 fold change” value is 0.135.
To RRIRCRPPRLPRPRPRPVYDPRP belongs -0.683.
The result for RRIRGRPPRLPRPRPRPMDEPRP reads 0.237; that for RRIRFRPPRLPRPRPRPSKAPRP, -0.367; that for RRIRGRPPRLPRPRPRPSHWPRP, 0.157.
Turning to RRIRYRPPRLPRPRPRPAKRPRP, the “shrunken log2 fold change” value was determined as 0.167.
Turning to RRIRIRPPRLPRPRPRPQMAPRP, the “shrunken log2 fold change” value was -0.064.
With RRIRARPPRLPRPRPRPKHSPRP, the “shrunken log2 fold change” value amounted to 0.0875.
To RRIRYRPPRLPRPRPRPFLEPRP belongs -0.775; to RRIRHRPPRLPRPRPRPVMYPRP, -1.29; to RRIRARPPRLPRPRPRPWFRPRP, 0.133.
The result for RRIRVRPPRLPRPRPRPWRAPRP reads 0.414.
The result for RRIRTRPPRLPRPRPRPQMMPRP reads -0.0792.
In the case of RRIRDRPPRLPRPRPRPVVEPRP, the “shrunken log2 fold change” value worked out at 0.321.
As for RRIRTRPPRLPRPRPRPPRTPRP, the “shrunken log2 fold change” value is 0.281.
To RRIRDRPPRLPRPRPRPKDMPRP belongs 0.0342.
To RRIRTRPPRLPRPRPRPQPDPRP belongs -0.136; to RRIRMRPPRLPRPRPRPTAGPRP, 0.396.
The result for RRIRNRPPRLPRPRPRPTQAPRP reads 0.24; that for RRIRYRPPRLPRPRPRPNQYPRP, -1.18; that for RRIRHRPPRLPRPRPRPPKLPRP, 0.12.
In the case of RRIRYRPPRLPRPRPRPCYFPRP, the “shrunken log2 fold change” value was -1.04.
To RRIRWRPPRLPRPRPRPGMAPRP belongs 0.627; to RRIRYRPPRLPRPRPRPLAIPRP, -0.778.
The result for RRIRRRPPRLPRPRPRPKKSPRP reads 0.237.
To RRIRRRPPRLPRPRPRPYMKPRP belongs -0.0984.
With RRIRHRPPRLPRPRPRPHMCPRP, the “shrunken log2 fold change” value is -0.0681.
The result for RRIRLRPPRLPRPRPRPLAMPRP reads -0.218; that for RRIRPRPPRLPRPRPRPCQEPRP, -0.0635; that for RRIRRRPPRLPRPRPRPDFPPRP, 0.897.
To RRIRARPPRLPRPRPRPLVDPRP belongs 0.498; to RRIRHRPPRLPRPRPRPLHEPRP, 0.0601.
To RRIRRRPPRLPRPRPRPQDPPRP belongs 0.376; to RRIRYRPPRLPRPRPRPQPAPRP, 0.0964; to RRIRRRPPRLPRPRPRPCAHPRP, 0.067.
On to RRIRARPPRLPRPRPRPHIMPRP, for which the “shrunken log2 fold change” value was -0.277.
The result for RRIRVRPPRLPRPRPRPYWNPRP reads -0.574.
The result for RRIRSRPPRLPRPRPRPWMYPRP reads -0.0974; that for RRIRRRPPRLPRPRPRPWSKPRP, -0.225; that for RRIRPRPPRLPRPRPRPHIIPRP, -0.19.
The result for RRIRIRPPRLPRPRPRPNRLPRP reads -0.286; that for RRIRGRPPRLPRPRPRPSVEPRP, 0.651.
RRIRERPPRLPRPRPRPPVRPRP: the “shrunken log2 fold change” value is 0.538.
The result for RRIRLRPPRLPRPRPRPRIDPRP reads -0.0317; that for RRIRIRPPRLPRPRPRPPRNPRP, 0.217; that for RRIRYRPPRLPRPRPRPSKGPRP, -0.203.
The result for RRIRGRPPRLPRPRPRPHNCPRP reads -0.0265.
With RRIRMRPPRLPRPRPRPRDYPRP, the “shrunken log2 fold change” value is -0.164.
The result for RRIRVRPPRLPRPRPRPTQKPRP reads 0.837.
